# The RNAGym collection of RNA variant scans (doi:10.7554/elife.80360)
# B1: CPEB3 Ribozyme (parent)
# chain: GGGGGCCACAGCAGAAGCGUUCACGUCGCGGCCCCUGUCAGAUUCUGGUGAAUCUGCGAAUUCUGCUGU
# Variants of: B1
# Test: self-cleavage, relative activity (ratio to wild type); higher = more cleavage; co-transcriptional
row,Variant,self-cleavage
1,G5U C22G,0.09
2,G5U G17C,0.0663
3,G5U G17A,0.082
4,G5U G17U,0.0412
5,C6A C9A,0.961
6,C6A C9G,1.02
7,C6G C35A,0.0719
8,C6G C35U,0.15
9,G5U C27G,0.0619
10,G5U C27U,0.032
11,G5U A59U,0.125
12,C6A G25A,0.136
13,C6A G25U,0.1
14,C6A G25C,0.133
15,C6A C18G,0.145
16,C6A C18U,0.146
17,C6A C18A,0.167
18,C6A A23U,0.749
19,C6A A23G,0.511
20,C6A A23C,0.519
21,G5U G47U,0.296
22,G5U G47C,0.277
23,G5U G47A,0.294
24,C6G C54U,0.398

row,Variant,self-cleavage
1,C6G C54G,0.0918
2,G5U C24G,0.0967
3,G5U C24U,0.0968
4,G5U G19C,0.0535
5,G5U G19U,0.0974
6,C6G C7U,0.176
7,C6G C34G,0.0582
8,C6G C34U,0.304
9,C6A G11U,0.448
10,C6A G11A,0.536
11,C6A A59G,0.464
12,C6A C33G,0.108
13,C6A C33U,0.347
14,C6G G48C,0.35
15,C6G G48U,0.391
16,G5U C45U,0.291
17,G5U C45A,0.208
18,C6A A16G,0.418
19,C6A A16C,0.0824
20,C6A A16U,0.159
21,C6A U44C,0.455
22,C6A U44G,0.416
23,C6A U44A,0.373
24,C6A G14C,0.101

row,Variant,self-cleavage
1,C6A G14U,0.116
2,C6A G14A,0.128
3,C6A C27U,0.159
4,C6A C27A,0.154
5,C6A C27G,0.122
6,G5U G37C,0.119
7,G5U G37U,0.0584
8,C6G A42U,0.154
9,C6G A42C,0.257
10,G5U C32U,0.568
11,G5U C32G,0.815
12,G5U C32A,0.953
13,C6A U62C,0.338
14,G5U C34G,0.0508
15,G5U C34A,0.0978
16,C6A G68C,0.889
17,C6A G68A,0.881
18,C6A G68U,0.939
19,C6A G19C,0.107
20,C6A G19A,0.105
21,C6A C45G,0.595
22,C6A C45U,0.708
23,C6G A51U,0.353
24,G5U C57A,0.11

row,Variant,self-cleavage
1,C6A G50U,0.727
2,C6A G50C,0.594
3,G5U C66G,0.133
4,G5U C66U,0.299
5,G5U C66A,0.19
6,C6A U21A,0.554
7,C6A U21G,0.179
8,C6A U21C,0.287
9,C6A A51G,0.604
10,C6A A51U,0.545
11,C6A A51C,0.458
12,G5U G25C,0.0917
13,G5U G25A,0.0881
14,G5U G25U,0.0766
15,C6G G17A,0.0588
16,C6G G17U,0.0809
17,C6G G17C,0.0719
18,C6A C29U,0.234
19,C6A C29A,0.213
20,C6A U20A,0.0587
21,C6A U20C,0.204
22,C6A U38G,0.117
23,C6A U38C,0.35
24,C6G A10U,0.375

row,Variant,self-cleavage
1,C6G A10G,0.459
2,G5U C9A,0.716
3,G5U C9U,0.877
4,C6A G37A,0.149
5,C6A G37U,0.142
6,C6A G37C,0.122
7,G5U C12U,0.188
8,G5U G11U,0.098
9,C6A A10G,0.798
10,C6A A10C,0.67
11,C6A A10U,0.903
12,G5U G31C,0.0656
13,G5U G31A,0.132
14,C6G C32A,0.0685
15,C6G C32U,0.212
16,C6G C32G,0.0963
17,G5U C18G,0.0898
18,G5U C18A,0.0315
19,G5U U55G,0.0798
20,G5U U55A,0.0876
21,C6G A16C,0.0895
22,C6G A16U,0.151
23,G5U U49A,0.316
24,G5U U49C,0.232

row,Variant,self-cleavage
1,C6G A23C,0.302
2,C6A C57G,0.22
3,C6A C57U,0.168
4,C6A C57A,0.182
5,C6G G50A,0.42
6,C6G G50U,0.37
7,G5U C63U,0.24
8,G5U C63A,0.114
9,G5U C63G,0.0897
10,G5U U21C,0.119
11,G5U U21A,0.158
12,C6A G31A,0.775
13,C6A G31C,0.762
14,C6A G31U,0.986
15,C6A U61G,0.242
16,C6A U61C,0.15
17,C6G A59G,0.255
18,C6G A59C,0.21
19,C6A A13G,0.506
20,C6A G28C,0.155
21,C6A G28A,0.138
22,C6A G28U,0.163
23,G5U U69G,0.671
24,C6A U69A,0.884

row,Variant,self-cleavage
1,C6A U69G,0.838
2,C6A U69C,1.03
3,G5U G41C,0.113
4,G5U G41U,0.0869
5,C6G C63G,0.149
6,C6G C63U,0.262
7,C6G C63A,0.185
8,C6A A40G,0.426
9,C6A A40C,0.177
10,C6A A40U,0.346
11,C6A G65A,0.451
12,C6A G65U,0.305
13,C6A G65C,0.157
14,G5U C29A,0.0808
15,G5U C29G,0.0724
16,C6A C34U,0.339
17,C6A G47A,0.712
18,C6A G47C,0.689
19,C6A G47U,0.661
20,C6A C39A,0.231
21,C6A C39U,0.416
22,C6G A8C,0.873
23,C6G A8U,0.149
